Experimental data from US6472171.

T1: chicken protein disulfide isomerase, P09102
T1 chain: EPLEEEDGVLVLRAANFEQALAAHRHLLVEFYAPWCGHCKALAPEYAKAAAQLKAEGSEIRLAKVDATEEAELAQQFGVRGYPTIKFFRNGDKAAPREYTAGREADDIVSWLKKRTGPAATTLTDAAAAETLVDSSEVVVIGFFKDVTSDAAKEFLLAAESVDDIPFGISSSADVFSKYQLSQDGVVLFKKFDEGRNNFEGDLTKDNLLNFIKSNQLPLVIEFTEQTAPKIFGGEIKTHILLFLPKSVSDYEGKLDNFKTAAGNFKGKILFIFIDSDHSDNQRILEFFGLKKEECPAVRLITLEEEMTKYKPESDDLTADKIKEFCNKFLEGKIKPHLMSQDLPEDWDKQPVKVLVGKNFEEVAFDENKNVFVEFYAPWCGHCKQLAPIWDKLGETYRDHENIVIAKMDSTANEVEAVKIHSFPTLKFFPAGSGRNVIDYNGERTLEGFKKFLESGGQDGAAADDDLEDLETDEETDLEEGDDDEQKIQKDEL


What was measured:
[1] = biological target: T1, chicken protein disulfide isomerase, …
[2] = biological target: human protein disulfide isomerase, P07237
Sequence of human protein disulfide isomerase, P07237 (P07237 18-508): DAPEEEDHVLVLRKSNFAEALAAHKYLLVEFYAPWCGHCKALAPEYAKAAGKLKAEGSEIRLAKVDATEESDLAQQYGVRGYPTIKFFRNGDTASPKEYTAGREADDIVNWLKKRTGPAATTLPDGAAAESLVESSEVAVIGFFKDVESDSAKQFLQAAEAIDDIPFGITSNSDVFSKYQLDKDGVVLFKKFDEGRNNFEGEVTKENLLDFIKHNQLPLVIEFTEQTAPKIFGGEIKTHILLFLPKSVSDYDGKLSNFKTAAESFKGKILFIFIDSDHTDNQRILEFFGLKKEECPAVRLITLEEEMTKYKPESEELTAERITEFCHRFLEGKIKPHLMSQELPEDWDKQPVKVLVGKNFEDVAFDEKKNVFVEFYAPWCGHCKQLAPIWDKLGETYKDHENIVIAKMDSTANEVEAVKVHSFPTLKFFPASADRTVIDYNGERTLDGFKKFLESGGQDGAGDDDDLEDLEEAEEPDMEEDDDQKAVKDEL

Protein	production of hydroxylated, heterotrimeric type 1 procollagen in yeast (plasmid Gp5511, cPDI/hP4-H) [1]	production of hydroxylated, heterotrimeric type 1 procollagen in yeast (plasmid Gp5565, hPDI/hP4-H) [2] [times lower]	production of hydroxylated, heterotrimeric type 1 procollagen in yeast (plasmid Gp5563, cPDI/cP4-H) [1]
human prolyl 4-hydroxylase subunit (protein) HPGFFTSIGQMTDLIHTEKDLVTSLKDYIKAEEDKLEQIKKWAEKLDRLTSTATKDPEGFVGHPVNAFKLMKRLNTEWSELENLVLKDMSDGFISNLTIQRQYFPNDEDQVGAAKALLRLQDTYNLDTDTISKGNLPGVKHKSFLTAEDCFELGKVAYTEADYYHTELWMEQALRQLDEGEISTIDKVSVLDYLSYAVYQQGDLDKALLLTKKLLELDPEHQRANGNLKYFEYIMAKEKDVNKSASDDQSDQKTTPKKKGVAVDYLPERQKYEMLCRGEGIKMTPRRQKKLFCRYHDGNRNPKFILAPAKQEDEWDKPRIIRFHDIISDAEIEIVKDLAKPRLRRATISNPITGDLETVHYRISKSAWLSGYENPVVSRINMRIQDLTGLDVSTAEELQVANYGVGGQYEPHFDFARKDEPDAFKELGTGNRIATWLFYMSDVSAGGATVFPEVGASVWPKKGTAVFWYNLFASGEGDYSTRHAACPVLVGNKWVSNKWLHERGQEFRRPCTLSELE	Plasmid Gp5511 (cPDI/hP4-H) generated the first hydroxylated type 1 (α1α2) procollagen expressed in yeast	< 3	–
chicken prolyl 4-hydroxylase subunit (protein) HTDFFTSIGHMTDLINTEKDLVISKLKDYIKAEESKLEQIKKWAEKLDKLTDTATKDPEGFLGHPANAFKLMKRLNTEWGELESLVLKDMSDGFISNMTIQRQFFPNDEDQTGARKALLRLQDTYNLDTDTLSRGNLPGVKHKSFLTAEDCFELGKIRYTEADYYHTELWMEQALKQLDEGEVSSADKVYILDYLSYAVYQQGDLSKAMMLTKRLLELDPEHQRANGNMKYFEYIMAKEKEANKSSTDAEDQTDKETEVKKKDYLPERRKYEMLCRGEGLKMTPRRQKRLFCRYYDGNRNPRYILGPVKQEDEWDKPRIVRFLDIISDEEIETVKELAKPRLSRATVHDPETGKLTTAHYRVSKSAWLSGYESPVVSRINTRIQDLTGLDVSTAEELQVANYGVGGQYEPHFDFGRKDEPDAFKELGTGNRIATWLFYMSDVSAGGATVFPEVGASVWPKKGTAVFWYNLFPSGEGDYSTRHAACPVLVGNKWVSNKWLHERGQEFRRPCTLSELE	–	–	produce levels of hydroxylated heterotrimeric procollagen equal to that found with plasmid Gp5511
